# Test results: patent US20190374506
# B1: Neural Precursor Cell Expressed Developmentally Down-Regulated Protein 4 polypeptide (NEDD4-1) (protein)
# chain: MATCAVEVFGLLEDEENSRIVRVRVIAGIGLAKKDILGASDPYVRVTLYDPMNGVLTSVQTKTIKKSLNPKWNEEILFRVHPQQHRLLFEVFDENRLTRDDFLGQVDVPLYPLPTENPRLERPYTFKDFVLHPRSHKSRVKGYLRLKMTYLPKTSGSEDDNAEQAEELEPGWVVLDQPDAACHLQQQQEPSPLPPGWEERQDILGRTYYVNHESRRTQWKRPTPQDNLTDAENGNIQLQAQRAFTTRRQISEETESVDNRESSENWEIIREDEATMYSNQAFPSPPPSSNLDVPTHLAEELNARLTIFGNSAVSQPASSSNHSSRRGSLQAYTFEEQPTLPVLLPTSSGLPPGWEEKQDERGRSYYVDHNSRTTTWTKPTVQATVETSQLTSSQSSAGPQSQASTSDSGQQVTQPSEIEQGFLPKGWEVRHAPNGRPFFIDHNTKTTTWEDPRLKIPAHLRGKTSLDTSNDLGPLPPGWEERTHTDGRIFYINHNIKRTQWEDPRLENVAITGPAVPYSRDYKRKYEFFRRKLKKQNDIPNKFEMKLRRATVLEDSYRRIMGVKRADFLKARLWIEFDGEKGLDYGGVAREWFFLISKEMFNPYYGLFEYSATDNYTLQINPNSGLCNEDHLSYFKFIGRVAGMAVYHGKLLDGFFIRPFYKMMLHKPITLHDMESVDSEYYNSLRWILENDPTELDLRFIIDEELFGQTHQHELKNGGSEIVVTNKNKKEYIYLVIQWRFVNRIQKQMAAFKEGFFELIPQDLIKIFDENELELLMCGLGDVDVNDWREHTKYKNGYSANHQVIQWFWKAVLMMDSEKRIRLLQFVTGTSRVPMNGFAELYGSNGPQSFTVEQWGTPEKLPRAHTCFNRLDLPPYESFEELWDKLQMAIENTQGFDGVD
# Biological target: Flag-PTEN
protein,measurement,value
B1,"in vitro ubiquitination of Flag-PTEN (E1, E2, ubiquitin; western blot with anti-PTEN antibody), NEDD4-1 alone",incubation of purified NEDD4-1 alone could not efficiently promote PTEN K27-linked poly-ubiquitination
same,"in vitro ubiquitination of Flag-PTEN, WWP1 and NEDD4-1 both present","in the presence of both WWP1 and NEDD4-1, PTEN was robustly K27-linked poly-ubiquitinated"
